B1: Histidine--tRNA ligase, cytoplasmic, residues 8 to 45; numbered along this chain, P12081 (parent)
chain: EELVKLQGERVRGLKQQKASAELIEEEVAKLLKLKAQL

Variants of: B1
Assay: abundance fitness (aPCA) (normalised: wild type 0, dead -1); higher = more abundant; growth selection in yeast, the domain comes from the species named
Details: Homo sapiens

Abundance fitness of substitutions, site by site:
Q7: W -1.15; S -0.433; L -0.515; M -0.452; E -1.63; P -0.595; F -0.73; D -0.492; A -0.348; R -0.649; H -0.507; I -0.526; V -0.379; N -0.485; K -0.693; G -0.619; T -0.357; C -0.616; Y -0.706
V11: T -0.127; L -0.189; M -0.106; A -0.169; G -0.121; Q 0.011; N -0.334; F -0.571; W -0.374; R -0.03; S -0.238; K -0.255; C -1.51; I -0.011; Y -0.552; H -0.209; E 0.055; P -0.01
G13: N 0.307; I 0.188; K 0.168; V 0.198; H 0.079; D 0.079; C 0.271; W 0.055; T 0.218; Q 0.253; Y -0.136; A 0.23; F 0.079; S 0.154; P -0.237; R 0.005; M 0.324; L 0.197
K5: S -0.531; M -0.143; F -0.443; V -0.611; P -0.54; H -0.223; Q -0.019; Y -0.27; L -0.394; R -0.269; G -0.407; I -0.436; W -0.383
L6: E 0.128; S -0.136; C -0.436; I -0.428; K 0.155; R 0.051; M 0.1; G -0.171; N -0.017; H 0.051; F -0.102; Y -0.261; P -0.211; Q 0.213; V 0.054; A 0.194
E9: W -0.726; T -0.246; S -0.291; G -0.357; H -0.699; F -0.684; P -0.631; V -0.653; L -0.466; Y -0.816; A -0.186; K -0.324; Q -0.379; C -0.5; R -0.464; I -0.716; D -0.001; N 0.035; M -0.232
L14: F -0.4; G -0.184; C -0.119; A 0.064; K -0.209; N -0.479; H -0.397; M 0.053; E 0.053; P -0.248; I -0.263; D -0.24
G8: K 0.377; V 0.085; F -0.287; W -0.452; E 0.44; S 0.074; P -0.25; Y -0.285; C -1.04; M 0.106; N -0.075; D 0.054; A 0.101; H -0.409; I 0.086; T 0.217; Q 0.194; L -0.002; R -0.04
R12: D 0.122; T 0.05; I -0.077; L -0.034; M -0.216; Q 0.101; W -0.018; N -0.022; G 0.096; F -0.172; S 0.098; E 0.231; H 0.005; V -0.008; A 0.218
R10: F -0.288; K 0.245; W -0.887; G -0.229; I -0.035; N -0.198; V 0.039; P 0.053; C -0.379; H -0.131; Q -0.097; L -0.026; E -0.044; Y -0.125; M -0.06; D -0.084; S -0.213; T 0.013

From the Human Domainome abundance scans (Beltran et al. 2025)
